± gives the uncertainty stated by the source.
Assay: self-splicing fitness, log relative to wild type (ln ratio); higher = more splicing; Tetrahymena group I intron in knt gene, E. coli kanamycin selection, DiMSum; sequences stand for … in CUCUCU…GGAGGGAAAAGUUAUCAGGCAUGCACCUGGUAGCUAGUCUUUAAACCAAUAGAUUGCAUCGGUUUAAAAGGCAAGACCGUCAAAUUGCGGGAAAGGGGUCAACAGCCGUUCAGUACCAAGUCUCAGGGGAAACUUUGAGAUGGCCUUGCAAAGGGUAUGGUAAUAAGCUGACGGACAUGGUCCUAACCACGCAGCCAAGUCCUAAGUCAACAGAUCUUCUGUUGAUAUGGAUGCAGUUCACAGACUAAAUGUCGGUCGGGGAAGAUGUAUUCUUCUCAUAAGAUAUAGUCGGACCUCUCCUUAAUGGGAGCUAGCGGAUGAAGUGAUGCAACACUGGAGCCGCUGGGAACUAAUUUGUAUGCGAAAGUAUAUUGAUUAGUUUUGGAGUACUCGUGGUCG
In short: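 A randomised library covering all eight P1ex-region intron nucleotides was built with the intron in the knt kanamycin-resistance gene on pET-22b(+) and held in E. coli BL21(DE3). Cells were grown overnight at 37°C or 30°C on LB agar, with or without 25 μg/mL kanamycin, plus 100 μg/mL carbenicillin, 50 μM IPTG and 0.2% rhamnose, and pooled colonies were amplicon-sequenced on an Illumina HiSeq 2500. DiMSum fitness is the error-weighted combination of wild-type-normalised replicate fold changes, kanamycin versus none.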

| Sequence | self-splicing fitness (ln) (30 °C) | self-splicing fitness (ln) (37 °C) |
| --- | --- | --- |
| ACAUAGCAAUAUUACGACCC | -0.944 ± 0.36 | -0.798 ± 0.32 |
| UUAUAGCAAUAUUACGGUCC | -2.8 ± 0.21 | -2.93 ± 0.29 |
| GGAAAGCAAUAUUACGGCGA | -0.475 ± 0.1 | -0.211 ± 0.089 |
| UACAAGCAAUAUUACGAAGG | -2.52 ± 0.11 | -1.38 ± 0.12 |
| AGCGAGCAAUAUUACGCCAA | -3.98 ± 0.25 | -1.56 ± 0.16 |
| GCCUAGCAAUAUUACGGAGC | -2.44 ± 0.13 | -1.43 ± 0.1 |
| UUGGAGCAAUAUUACGCGCA | -2.48 ± 0.29 | -1.09 ± 0.29 |
| CUUCAGCAAUAUUACGUCAC |  | -1.41 ± 0.19 |
| CCUUAGCAAUAUUACGGGGC | -3.39 ± 0.27 | -3.06 ± 0.32 |
| UUGAAGCAAUAUUACGCAGU | -1.2 ± 0.3 | -1.54 ± 0.32 |
| UACCAGCAAUAUUACGGGCU | -2.89 ± 0.14 | -1.96 ± 0.19 |
| GGGAAGCAAUAUUACGUUAG | -2.72 ± 0.27 | -0.794 ± 0.24 |
| GGAUAGCAAUAUUACGGGCC | -2.56 ± 0.35 | -1.65 ± 0.23 |
| UCCAAGCAAUAUUACGUACC | -2.68 ± 0.19 | -2.18 ± 0.26 |
| GUGCAGCAAUAUUACGUCGU | -1.01 ± 0.12 | -0.193 ± 0.14 |
| GGGCAGCAAUAUUACGACUC | 0.392 ± 0.12 | 0.247 ± 0.17 |
| AAAGAGCAAUAUUACGCCCA | -2.88 ± 0.32 | -2.02 ± 0.28 |
| GUAGAGCAAUAUUACGCUUA | -0.468 ± 0.087 | -0.371 ± 0.1 |
| AGGCAGCAAUAUUACGUUGC | -4.18 ± 0.36 | -2.13 ± 0.29 |
| GUGUAGCAAUAUUACGGAAA | -3 ± 0.28 | -1.42 ± 0.27 |
| AACUAGCAAUAUUACGUUAA | -2.93 ± 0.24 | -1.71 ± 0.23 |
| AGCAAGCAAUAUUACGUUUC | -4.44 ± 0.25 | -2.09 ± 0.15 |
| CUCGAGCAAUAUUACGCUGA | -2.4 ± 0.43 | -0.491 ± 0.3 |
| GCAUAGCAAUAUUACGUUAA | -2.44 ± 0.19 | -1.81 ± 0.15 |
| UUCAAGCAAUAUUACGUAAA | -0.739 ± 0.086 | -0.541 ± 0.14 |

| Sequence | self-splicing fitness (ln) (30 °C) | self-splicing fitness (ln) (37 °C) |
| --- | --- | --- |
| UAGUAGCAAUAUUACGACAG | -2.01 ± 0.3 | -1.18 ± 0.37 |
| CAGUAGCAAUAUUACGGGCA | -3.05 ± 0.27 | -2.35 ± 0.25 |
| AGCCAGCAAUAUUACGCUUC | -3.53 ± 0.22 | -3.48 ± 0.29 |
| UUGCAGCAAUAUUACGGCAG | -0.754 ± 0.14 | -1.27 ± 0.17 |
| UCGCAGCAAUAUUACGAAUC | -4.04 ± 0.2 | -2.61 ± 0.2 |
| CCGCAGCAAUAUUACGCGUU | -3.51 ± 0.14 | -2.29 ± 0.14 |
| AUUGAGCAAUAUUACGGUUG | -3.28 ± 0.31 | -2.48 ± 0.29 |
| GAGGAGCAAUAUUACGAACA | -2.69 ± 0.23 | -2.07 ± 0.16 |
| CAAUAGCAAUAUUACGUUUA | -3.6 ± 0.19 | -2.13 ± 0.14 |
| AUGUAGCAAUAUUACGUAUA | -1.99 ± 0.2 | -1.58 ± 0.21 |
| AAGGAGCAAUAUUACGUACU | -0.884 ± 0.11 | -0.189 ± 0.11 |
| UACGAGCAAUAUUACGUAUU | -3.45 ± 0.25 | -2.47 ± 0.41 |
| GUAUAGCAAUAUUACGUCGA | -2.2 ± 0.29 | -1.03 ± 0.2 |
| ACCCAGCAAUAUUACGUACG | -2.2 ± 0.14 | -1.71 ± 0.16 |
| AGGCAGCAAUAUUACGGAUU | -1.08 ± 0.077 | 0.356 ± 0.098 |
| CGUGAGCAAUAUUACGAGCU | -2.79 ± 0.17 | -2.99 ± 0.25 |
| CCCCAGCAAUAUUACGAUUU | -3.43 ± 0.14 | -3.51 ± 0.25 |
| AUCAAGCAAUAUUACGGACU | -0.672 ± 0.076 | 0.456 ± 0.096 |
| ACGUAGCAAUAUUACGUCCG | -1.63 ± 0.12 | -0.705 ± 0.11 |
| UUUAAGCAAUAUUACGACUA | 0.0508 ± 0.11 | -0.0992 ± 0.096 |
| AGAGAGCAAUAUUACGGAAU | -3.36 ± 0.32 | -1.79 ± 0.44 |
| AUACAGCAAUAUUACGGACU | -0.732 ± 0.06 | 0.141 ± 0.09 |
| AAAGAGCAAUAUUACGUGAA | -3.27 ± 0.14 | -2.44 ± 0.16 |
| CUUGAGCAAUAUUACGGACA | -2.41 ± 0.37 |  |
| CGGUAGCAAUAUUACGAGCG | -0.978 ± 0.19 | -0.291 ± 0.14 |

| Sequence | self-splicing fitness (ln) (30 °C) | self-splicing fitness (ln) (37 °C) |
| --- | --- | --- |
| ACUUAGCAAUAUUACGGAAC | -3.24 ± 0.19 | -1.07 ± 0.34 |
| GAUAAGCAAUAUUACGUGUU | -2.67 ± 0.17 | -2.18 ± 0.14 |
| UGCAAGCAAUAUUACGGUGU | -3.9 ± 0.23 | -2.92 ± 0.24 |
| GUGGAGCAAUAUUACGACCA |  | -1.24 ± 0.35 |
| UCCCAGCAAUAUUACGGGCA | -0.512 ± 0.082 | -0.2 ± 0.097 |
| GUGUAGCAAUAUUACGUGUA | -2.62 ± 0.14 | -1.22 ± 0.11 |
| CCGUAGCAAUAUUACGGCCA |  | -2.19 ± 0.35 |
| AUGGAGCAAUAUUACGUACG | -3.38 ± 0.47 | -2.58 ± 0.36 |
| GGUUAGCAAUAUUACGGACU |  | -1.31 ± 0.23 |
| CAUCAGCAAUAUUACGUACU | -2.68 ± 0.18 | -1.65 ± 0.22 |
| AGGCAGCAAUAUUACGAGUC | -2.29 ± 0.14 | -2.34 ± 0.2 |
| AACGAGCAAUAUUACGGAGC | -3.72 ± 0.19 | -2.05 ± 0.15 |
| UGCCAGCAAUAUUACGCUCU | -1.42 ± 0.079 | 0.293 ± 0.098 |
| GGCAAGCAAUAUUACGUCUU | -0.676 ± 0.066 | -0.385 ± 0.071 |
| UACUAGCAAUAUUACGGUUG | -2.18 ± 0.081 | -1.06 ± 0.11 |
| GUACAGCAAUAUUACGACCG | -2.47 ± 0.19 | -0.419 ± 0.14 |
| CAUUAGCAAUAUUACGACGG | -0.257 ± 0.094 | -0.0198 ± 0.13 |
| ACACAGCAAUAUUACGUGCA | -0.241 ± 0.051 | -0.395 ± 0.063 |
| UAGUAGCAAUAUUACGGCGU | -2.15 ± 0.17 | -1.2 ± 0.17 |
| AGAAAGCAAUAUUACGUACC | -0.284 ± 0.087 | 0.446 ± 0.12 |
| AGUUAGCAAUAUUACGCAAU | -1.6 ± 0.18 | -2.52 ± 0.29 |
| CAAUAGCAAUAUUACGCACU | -2.14 ± 0.12 | -1.82 ± 0.17 |
| UGAAAGCAAUAUUACGACAC | -2.11 ± 0.34 | -1.18 ± 0.4 |
| UGAAAGCAAUAUUACGGCGA | -0.22 ± 0.1 | -0.0348 ± 0.099 |
| GAGUAGCAAUAUUACGACUA | 0.106 ± 0.14 | -0.537 ± 0.13 |

| Sequence | self-splicing fitness (ln) (30 °C) | self-splicing fitness (ln) (37 °C) |
| --- | --- | --- |
| CACAAGCAAUAUUACGGCGC | -3.59 ± 0.17 | -1.07 ± 0.12 |
| UGAAAGCAAUAUUACGCAGA | -1.68 ± 0.12 | -1.93 ± 0.15 |
| GACGAGCAAUAUUACGGAAU | -3.93 ± 0.28 | -0.331 ± 0.16 |
| UAGAAGCAAUAUUACGUUUG | -2.32 ± 0.1 | -0.879 ± 0.12 |
| UAUGAGCAAUAUUACGCACA | -0.923 ± 0.21 | -0.282 ± 0.21 |
| GAUAAGCAAUAUUACGUAUG | -1.53 ± 0.11 | -1.37 ± 0.1 |
| GGACAGCAAUAUUACGUUCU | -2.91 ± 0.12 | -2.45 ± 0.18 |
| AAGGAGCAAUAUUACGCUUG | -1.86 ± 0.1 | -0.799 ± 0.13 |
| AGAAAGCAAUAUUACGCGCG | -0.0244 ± 0.1 | -0.00454 ± 0.14 |
| ACCUAGCAAUAUUACGGACC | -0.548 ± 0.16 | 0.368 ± 0.17 |
| UGUGAGCAAUAUUACGGAUU |  | -1.59 ± 0.34 |
| UGAAAGCAAUAUUACGACUU | -0.765 ± 0.12 | 0.423 ± 0.15 |
| UCCGAGCAAUAUUACGCCUC |  | -1.34 ± 0.33 |
| CCCUAGCAAUAUUACGUCAG | -3.8 ± 0.18 | -2.91 ± 0.18 |
| UUUGAGCAAUAUUACGCUAA | -1.08 ± 0.41 |  |
| UGAAAGCAAUAUUACGCACC | -0.796 ± 0.2 | -0.513 ± 0.26 |
| CAGCAGCAAUAUUACGGCCG | -0.67 ± 0.08 | -0.622 ± 0.12 |
| GUGGAGCAAUAUUACGCGGU | -1.16 ± 0.3 | -0.344 ± 0.29 |
| GCUGAGCAAUAUUACGGCUU | -2.37 ± 0.24 |  |
| GAGCAGCAAUAUUACGAAGG |  | -2.79 ± 0.34 |
| UGGUAGCAAUAUUACGACCC | 0.0232 ± 0.27 | -0.576 ± 0.36 |
| GCAGAGCAAUAUUACGCAGU | -3.61 ± 0.29 | -1.86 ± 0.3 |
| AGUCAGCAAUAUUACGGUGC | -1.68 ± 0.14 | -1.07 ± 0.19 |

— the supplement of paper PMC7877785
